Experimental data reported in US9931415B2, “Pyrrolobenzodiazepine-antibody conjugates” (ADC THERAPEUTICS S.A., priority 2012, dated 2018).

Columns and labels:
CD25 on Karpas299 cells = target: T1, CD25 on Karpas299 cells (Homo sapiens, UniProt P01589); test: Binding of HuMax-TAC to CD25 +ve cell lines by flow cytometry (Karpas299)
T1 construct: Surface CD25 expression on Karpas and SU-DHL-1 was determined by flow cytometry; endogenous in cells; host or cells: Karpas299 and SU-DHL-1 cell lines
T1 sequence (P01589 22-272): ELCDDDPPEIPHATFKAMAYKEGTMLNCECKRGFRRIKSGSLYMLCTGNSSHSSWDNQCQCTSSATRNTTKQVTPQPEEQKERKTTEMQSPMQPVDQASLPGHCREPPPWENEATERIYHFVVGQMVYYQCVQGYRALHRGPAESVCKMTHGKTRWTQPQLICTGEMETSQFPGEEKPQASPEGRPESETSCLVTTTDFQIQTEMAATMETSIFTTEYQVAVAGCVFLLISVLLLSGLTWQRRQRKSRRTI
Protocol: (§1) Karpas299 and SU-DHL-1 anaplastic large cell lymphoma (ALCL)-derived cell lines have been previously reported to express CD25 (2,3). To confirm their expression profile, CD25 surface expression was analyzed by flow cytometry. HuMax-TAC was used as a CD25-specific antibody. B12 was used as a negative control antibody.
(§2) Surface CD25 expression on Karpas and SU-DHL-1 was determined by flow cytometry. Graphs represent the average of three (Karpas299) or four independent experiments (SU-DHL-1). EC50 values are reported in ng/ml.

CD25 on SU-DHL-1 cells = target: T2, CD25 on SU-DHL-1 cells (Homo sapiens, UniProt P01589); test: Binding of HuMax-TAC to CD25 +ve cell lines by flow cytometry (SU-DHL-1)
T2 construct: endogenous in cells; host or cells: Karpas299 and SU-DHL-1 cell lines
T2 sequence (P01589 22-272): T1 sequence (P01589 22-272)
Protocol: as §1, §2

## HuMax-TAC: anti-CD25 antibody comprising a VH domain of SEQ ID NO. 1 and a VL domain of SEQ ID NO. 2
CD25 on Karpas299 cells
  binding to cell surface CD25 (flow cytometry): specifically bound
CD25 on Karpas299 cells; flow cytometry, average of three experiments
  EC50: 0.02021 µg/mL
CD25 on SU-DHL-1 cells
  binding to cell surface CD25 (flow cytometry): specifically bound
CD25 on SU-DHL-1 cells; flow cytometry, average of four experiments
  EC50: 0.03406 µg/mL
